B1: Etesevimab (antibody, V domains shown)
VH: EVQLVESGGGLVQPGGSLRLSCAASGFTVSSNYMSWVRQAPGKGLEWVSVIYSGGSTFYADSVKGRFTISRDNSMNTLFLQMNSLRAEDTAVYYCARVLPMYGDYLDYWGQGTLVTVSS
VL: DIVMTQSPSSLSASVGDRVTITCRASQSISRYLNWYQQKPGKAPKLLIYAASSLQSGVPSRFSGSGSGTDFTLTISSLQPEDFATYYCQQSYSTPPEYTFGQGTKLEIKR
B2: REGN10933 (Casirivimab) (antibody, V domains shown)
VH: QVQLVESGGGLVKPGGSLRLSCAASGFTFSDYYMSWIRQAPGKGLEWVSYITYSGSTIYYADSVKGRFTISRDNAKSSLYLQMNSLRAEDTAVYYCARDRGTTMVPFDYWGQGTLVTVSS
VL: DIQMTQSPSSLSASVGDRVTITCQASQDITNYLNWYQQKPGKAPKLLIYAASNLETGVPSRFSGSGSGTDFTFTISGLQPEDIATYYCQQYDNLPLTFGGGTKVEIKR
B3: Bamlanivimab (antibody, V domains shown)
VH: QVQLVQSGAEVKKPGSSVKVSCKASGGTFSNYAISWVRQAPGQGLEWMGRIIPILGIANYAQKFQGRVTITADKSTSTAYMELSSLRSEDTAVYYCARGYYEARHYYYYYAMDVWGQGTAVTVSS
VL: not shown
B4: REGN10987 (Imdevimab) (antibody, V domains shown)
VH: QVQLVESGGGVVQPGRSLRLSCAASGFTFSNYAMYWVRQAPGKGLEWVAVISYDGSNKYYADSVKGRFTISRDNSKNTLYLQMNSLRTEDTAVYYCASGSDYGDYLLVYWGQGTLVTVSS
VL: QSALTQPASVSGSPGQSITISCTGTSSDVGGYNYVSWYQQHPGKAPKLMIYDVSKRPSGVSNRFSGSKSGNTASLTISGLQSEDEADYYCNSLTSISTWVFGGGTKLTVLR

Assays:
[1] = target: P.1 (Gamma) SARS-CoV-2 spike protein, plate-coated (MSD) (SARS-CoV-2, UniProt P0DTC2 14-1208); assay: MSD competition vs labelled ACE2
[2] = target: Alpha SARS-CoV-2 spike on pseudotyped lentivirus (SARS-CoV-2, UniProt P0DTC2 14-1273); assay: cell-based or functional assay
[3] = target: Beta SARS-CoV-2 spike on pseudotyped lentivirus (SARS-CoV-2, UniProt P0DTC2 14-1273); assay: cell-based or functional assay

| Binder | IC50 [1] [nM] | Pseudovirus Neutralization (IC50, nM) [2] [nM] | Pseudovirus Neutralization (IC50, nM) [3] [nM] |
| --- | --- | --- | --- |
| B1 | 0.08 | – | – |
| B2 | – | 0.05 | – |
| B3 | – | 1.9 | > 100 |
| B4 | – | 0.13 | 41.1 |
